According to the supplement of paper PMC10724198:
± gives the standard deviation of the averaged measurements.

Experiments:
[1] = test system: Saccharomyces cerevisiae; assay: protein stability index of tFT-peptide fusion (C-terminal peptide) (PSI (0-1 scale)); higher = more stable (slower turnover); conditions: genetic background: wild type; temperature: 30 C
[2] = test system: Saccharomyces cerevisiae; assay: as above
Method: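 MPS profiling in S. cerevisiae of the tFT-X12 degron library: putative degron peptides plus stable controls, 12 aa, fused to the C-terminus of a sfGFP-mCherry timer. Cells are FACS-sorted into 8 mCherry/sfGFP bins and deep-sequenced. PSI runs from 0 (unstable) to 1 (stable). Backgrounds are wild type, das1Δ and doa10Δ at 30 °C, and wild type, das1Δ, cdc34-1 and cdc53-1 at 37 °C; 2-3 technical replicates each.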

[3] = genetic background: cdc34-1, temperature: 37 C
[4] = genetic background: cdc53-1, temperature: 37 C
[5] = genetic background: das1 deletion, temperature: 30 C
[6] = genetic background: das1 deletion, temperature: 37 C
[7] = genetic background: doa10 deletion, temperature: 30 C
[8] = genetic background: wild type, temperature: 30 C
[9] = genetic background: wild type, temperature: 37 C
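Note: PSI is a weighted mean of sequencing reads over stability bins, variants kept only with over 10 reads, mCherry proximal and sfGFP distal, peptide attached via GGGS linker.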

## ATLWVWCFSSHV
[1]
  protein stability index: 0.497 ± 0.078
[2]; [3]
  protein stability index: 0.601 ± 0.047
[2]; [4]
  protein stability index: 0.6418 ± 0.003
[2]; [5]
  protein stability index: 0.469 ± 0.019
[2]; [6]
  protein stability index: 0.62 ± 0.013
[2]; [7]
  protein stability index: 0.438 ± 0.023
[2]; [8]
  protein stability index: 0.447 ± 0.021
[2]; [9]
  protein stability index: 0.5991 ± 0.0014

## ATSGATILVLIA
[1]
  protein stability index: 0.307 ± 0.0047
[2]; [3]
  protein stability index: 0.569 ± 0.014
[2]; [4]
  protein stability index: 0.65 ± 0.0048
[2]; [5]
  protein stability index: 0.488 ± 0.024
[2]; [6]
  protein stability index: 0.6473 ± 0.0042
[2]; [7]
  protein stability index: 0.188 ± 0.0099
[2]; [8]
  protein stability index: 0.218 ± 0.021
[2]; [9]
  protein stability index: 0.342 ± 0.0064

## CEVLVVVMCLWG
[1]
  protein stability index: 0.285 ± 0.024
[2]; [3]
  protein stability index: 0.199 ± 0.0023
[2]; [4]
  protein stability index: 0.295 ± 0.043
[2]; [5]
  protein stability index: 0.224 ± 0.029
[2]; [6]
  protein stability index: 0.3738 ± 0.0025
[2]; [7]
  protein stability index: 0.196 ± 0.006
[2]; [8]
  protein stability index: 0.217 ± 0.025
[2]; [9]
  protein stability index: 0.32342 ± 4.2e-05

## CFFPFLCFVVGA
[1]
  protein stability index: 0.445 ± 0.017
[2]; [3]
  protein stability index: 0.482 ± 0.021
[2]; [4]
  protein stability index: 0.492 ± 0.023
[2]; [5]
  protein stability index: 0.358 ± 0.025
[2]; [6]
  protein stability index: 0.514 ± 0.0085
[2]; [7]
  protein stability index: 0.3205 ± 0.0017
[2]; [8]
  protein stability index: 0.346 ± 0.013
[2]; [9]
  protein stability index: 0.49 ± 0.0059

## CLFFFFFHLPIF
[1]
  protein stability index: 0.472 ± 0.032
[2]; [3]
  protein stability index: 0.445 ± 0.022
[2]; [4]
  protein stability index: 0.508 ± 0.016
[2]; [5]
  protein stability index: 0.425 ± 0.026
[2]; [6]
  protein stability index: 0.533 ± 0.033
[2]; [7]
  protein stability index: 0.4011 ± 0.00062
[2]; [8]
  protein stability index: 0.389 ± 0.023
[2]; [9]
  protein stability index: 0.476 ± 0.021

## CLFSVLFPLFFR
[1]
  protein stability index: 0.214 ± 0.039
[2]; [3]
  protein stability index: 0.0858 ± 0.049
[2]; [4]
  protein stability index: 0.0347 ± 0.0022
[2]; [5]
  protein stability index: 0.137 ± 0.042
[2]; [6]
  protein stability index: 0.158 ± 0.016
[2]; [7]
  protein stability index: 0.6444 ± 0.0064
[2]; [8]
  protein stability index: 0.142 ± 0.0055
[2]; [9]
  protein stability index: 0.184 ± 0.073

## CLGLFPSLLRLS
[1]
  protein stability index: 0.325 ± 0.032
[2]; [3]
  protein stability index: 0.666 ± 0.031
[2]; [4]
  protein stability index: 0.737 ± 0.021
[2]; [5]
  protein stability index: 0.644 ± 0.02
[2]; [6]
  protein stability index: 0.731 ± 0.0092
[2]; [7]
  protein stability index: 0.285 ± 0.026
[2]; [8]
  protein stability index: 0.291 ± 0.033
[2]; [9]
  protein stability index: 0.535 ± 0.009

## CLLWVVWSLLWV
[1]
  protein stability index: 0.353 ± 0.095
[2]; [3]
  protein stability index: 0.346 ± 0.0041
[2]; [4]
  protein stability index: 0.432 ± 0.011
[2]; [5]
  protein stability index: 0.283 ± 0.035
[2]; [6]
  protein stability index: 0.4506 ± 0.0035
[2]; [7]
  protein stability index: 0.269 ± 0.0094
[2]; [8]
  protein stability index: 0.257 ± 0.034
[2]; [9]
  protein stability index: 0.416 ± 0.0074

## CLVFGFLFFIVI
[1]
  protein stability index: 0.404 ± 0.021
[2]; [3]
  protein stability index: 0.35 ± 0.028
[2]; [4]
  protein stability index: 0.411 ± 0.061
[2]; [5]
  protein stability index: 0.338 ± 0.026
[2]; [6]
  protein stability index: 0.449 ± 0.016
[2]; [7]
  protein stability index: 0.435 ± 0.016
[2]; [8]
  protein stability index: 0.35 ± 0.029
[2]; [9]
  protein stability index: 0.447 ± 0.037

## CLWNFWVRFLLL
[1]
  protein stability index: 0.175 ± 0.022
[2]; [3]
  protein stability index: 0.298 ± 0.042
[2]; [4]
  protein stability index: 0.406 ± 0.023
[2]; [5]
  protein stability index: 0.399 ± 0.014
[2]; [6]
  protein stability index: 0.509 ± 0.015
[2]; [7]
  protein stability index: 0.164 ± 0.0046
[2]; [8]
  protein stability index: 0.139 ± 0.01
[2]; [9]
  protein stability index: 0.135 ± 0.0083

## CMLGVVRVLVWF
[1]
  protein stability index: 0.186 ± 0.033
[2]; [3]
  protein stability index: 0.028 ± 0.0058
[2]; [4]
  protein stability index: 0.138 ± 0.075
[2]; [5]
  protein stability index: 0.129 ± 0.029
[2]; [6]
  protein stability index: 0.1929 ± 0.0009
[2]; [7]
  protein stability index: 0.101 ± 0.0035
[2]; [8]
  protein stability index: 0.105 ± 0.051
[2]; [9]
  protein stability index: 0.17 ± 0.027

## CMLPWPILLCPF
[1]
  protein stability index: 0.46 ± 0.0055
[2]; [3]
  protein stability index: 0.322 ± 0.0044
[2]; [4]
  protein stability index: 0.329 ± 0.023
[2]; [5]
  protein stability index: 0.391 ± 0.024
[2]; [6]
  protein stability index: 0.469 ± 0.023
[2]; [7]
  protein stability index: 0.517 ± 0.022
[2]; [8]
  protein stability index: 0.389 ± 0.0084
[2]; [9]
  protein stability index: 0.456 ± 0.03

## CMPVYYTVVIRL
[1]
  protein stability index: 0.296 ± 0.021
[2]; [3]
  protein stability index: 0.177 ± 0.052
[2]; [4]
  protein stability index: 0.102 ± 0.028
[2]; [5]
  protein stability index: 0.204 ± 0.029
[2]; [6]
  protein stability index: 0.294 ± 0.015
[2]; [7]
  protein stability index: 0.246 ± 0.021
[2]; [8]
  protein stability index: 0.159 ± 0.024
[2]; [9]
  protein stability index: 0.31 ± 0.021

## CPALTFCLLLSS
[1]
  protein stability index: 0.457 ± 0.0097
[2]; [3]
  protein stability index: 0.539 ± 0.051
[2]; [4]
  protein stability index: 0.567 ± 0.0093
[2]; [5]
  protein stability index: 0.417 ± 0.029
[2]; [6]
  protein stability index: 0.5866 ± 0.0054
[2]; [7]
  protein stability index: 0.427 ± 0.015
[2]; [8]
  protein stability index: 0.383 ± 0.019
[2]; [9]
  protein stability index: 0.557 ± 0.01

## CPFLTLLISLDV
[1]
  protein stability index: 0.478 ± 0.011
[2]; [3]
  protein stability index: 0.52 ± 0.034
[2]; [4]
  protein stability index: 0.555 ± 0.044
[2]; [5]
  protein stability index: 0.411 ± 0.032
[2]; [6]
  protein stability index: 0.531 ± 0.0067
[2]; [7]
  protein stability index: 0.407 ± 0.011
[2]; [8]
  protein stability index: 0.426 ± 0.01
[2]; [9]
  protein stability index: 0.513 ± 0.028

## CPICDFLFLALF
[1]
  protein stability index: 0.424 ± 0.054
[2]; [3]
  protein stability index: 0.565 ± 0.021
[2]; [4]
  protein stability index: 0.599 ± 0.064
[2]; [5]
  protein stability index: 0.483 ± 0.037
[2]; [6]
  protein stability index: 0.651 ± 0.022
[2]; [7]
  protein stability index: 0.469 ± 0.023
[2]; [8]
  protein stability index: 0.424 ± 0.028
[2]; [9]
  protein stability index: 0.598 ± 0.03

## CRHCFVLLYFDY
[1]
  protein stability index: 0.349 ± 0.00063
[2]; [3]
  protein stability index: 0.304 ± 0.026
[2]; [4]
  protein stability index: 0.304 ± 0.013
[2]; [5]
  protein stability index: 0.321 ± 0.033
[2]; [6]
  protein stability index: 0.384 ± 0.0093
[2]; [7]
  protein stability index: 0.421 ± 0.017
[2]; [8]
  protein stability index: 0.318 ± 0.023
[2]; [9]
  protein stability index: 0.374 ± 0.0097

## CRLATILRITAL
[1]
  protein stability index: 0.384 ± 0.018
[2]; [3]
  protein stability index: 0.574 ± 0.028
[2]; [4]
  protein stability index: 0.665 ± 0.026
[2]; [5]
  protein stability index: 0.552 ± 0.022
[2]; [6]
  protein stability index: 0.658 ± 0.021
[2]; [7]
  protein stability index: 0.193 ± 0.008
[2]; [8]
  protein stability index: 0.241 ± 0.031
[2]; [9]
  protein stability index: 0.4445 ± 0.00077
